Measurements: article PMC4291483 (The EMBO Journal, 2014)

Biological target: T1, purified STIL[N] (aa1-1018) (human, UniProt Q15468 1-1018)
T1 sequence (looked up): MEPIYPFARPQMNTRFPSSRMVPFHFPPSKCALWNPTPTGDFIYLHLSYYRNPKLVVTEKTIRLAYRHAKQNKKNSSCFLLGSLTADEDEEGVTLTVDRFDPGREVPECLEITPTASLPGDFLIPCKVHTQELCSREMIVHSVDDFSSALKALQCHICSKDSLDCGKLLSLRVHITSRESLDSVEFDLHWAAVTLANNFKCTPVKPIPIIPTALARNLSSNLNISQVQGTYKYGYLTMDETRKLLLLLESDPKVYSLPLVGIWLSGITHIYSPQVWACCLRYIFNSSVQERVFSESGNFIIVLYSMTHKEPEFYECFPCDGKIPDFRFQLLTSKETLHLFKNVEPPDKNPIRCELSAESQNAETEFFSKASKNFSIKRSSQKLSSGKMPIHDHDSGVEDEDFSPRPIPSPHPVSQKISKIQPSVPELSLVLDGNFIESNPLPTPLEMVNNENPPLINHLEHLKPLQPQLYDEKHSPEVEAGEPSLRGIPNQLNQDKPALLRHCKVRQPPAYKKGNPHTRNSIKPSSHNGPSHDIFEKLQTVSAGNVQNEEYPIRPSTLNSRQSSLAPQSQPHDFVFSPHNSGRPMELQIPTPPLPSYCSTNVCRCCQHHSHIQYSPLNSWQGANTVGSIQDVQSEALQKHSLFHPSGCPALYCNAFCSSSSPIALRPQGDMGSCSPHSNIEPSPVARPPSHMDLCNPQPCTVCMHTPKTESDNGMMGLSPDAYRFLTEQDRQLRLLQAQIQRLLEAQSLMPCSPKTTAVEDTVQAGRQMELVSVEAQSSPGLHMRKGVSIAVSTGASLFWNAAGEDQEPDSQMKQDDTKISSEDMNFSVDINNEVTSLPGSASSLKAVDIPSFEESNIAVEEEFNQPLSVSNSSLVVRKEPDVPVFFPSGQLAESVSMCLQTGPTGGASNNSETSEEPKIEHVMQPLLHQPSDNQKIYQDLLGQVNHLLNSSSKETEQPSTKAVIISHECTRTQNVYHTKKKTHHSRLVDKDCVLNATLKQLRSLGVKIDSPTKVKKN
Test: pull-down; GST-RBM14 fragments retained on Glutathione sepharose beads, incubated with ~5 μg bacterially purified STIL[N] for 2 h at 4°C in lysis buffer; SDS-PAGE, SimplyBlue Safe stain
Details: both partners purified

B1: GST-RBM14[C] (domain or fragment, human, UniProt Q96PK6 151-669, looked up)
chain: QKKGPGLAVQSGDKTKKPGAGDTAFPGTGGFSATFDYQQAFGNSTGGFDGQARQPTPPFFGRDRSPLRRSPPRASYVAPLTAQPATYRAQPSVSLGAAYRAQPSASLGVGYRTQPMTAQAASYRAQPSVSLGAPYRGQLASPSSQSAAASSLGPYGGAQPSASALSSYGGQAAAASSLNSYGAQGSSLASYGNQPSSYGAQAASSYGVRAAASSYNTQGAASSLGSYGAQAASYGAQSAASSLAYGAQAASYNAQPSASYNAQSAPYAAQQAASYSSQPAAYVAQPATAAAYASQPAAYAAQATTPMAGSYGAQPVVQTQLNSYGAQASMGLSGSYGAQSAAAATGSYGAAAAYGAQPSATLAAPYRTQSSASLAASYAAQQHPQAAASYRGQPGNAYDGAGQPSAAYLSMSQGAVANANSTPPPYERTRLSPPRASYDDPYKKAVAMSKRYGSDRRLAELSDYRRLSESQLSFRRSPTKSSLDYRRLPDAHSDYARYSGSYNDYLRAAQMHSGYQRRM
- binding result: binds
